# Source: patent publication US8404239B2, “Anti-Notch2 NRR antibodies” (Genentech, Inc., priority 2008, dated 2013)
# B1: anti-NRR2: affinity matured form of Antibody D, phage library-derived human anti-Notch2 NRR monoclonal antibody (antibody, V domains shown)
# VH: EVQLVESGGGLVQPGGSLRLSCAASGYTFSSYGMSWVRQAPGKGLEWVSYIYPYSGATYYADSVKGRFTISADTSKNTAYLQMNSLRAEDTAVYYCARHSGYYRISSAMDVWGQGTLVTVSA
# VL: DIQMTQSPSSLSASVGDRVTITCRASQNIKRFLAWYQQKPGKAPKLLIYGASTRESGVPSRFSGSGSGTDFTLTISSLQPEDFATYYCQQYYRSPHTFGQGTKVEIKR
# Tests used:
# [1] = system: other three non-targeted receptors; test: Binding to non-targeted Notch receptors (SPR, ELISA, FACS); design: species or system human, mouse; conditions: ELISA and FACS
# Description: Binding affinities of anti-Notch2 NRR antibodies were measured by Surface Plasmon Resonance (SRP) using a BIAcore™-3000 instrument. Anti-Notch2 NRR human IgGs were captured by mouse anti-human IgG coated on the CM5 sensor chip to achieve approximately 200 response units (RU). For kinetics measurements, two-fold serial dilutions of human and mouse Notch2 NRR (3.9 nM to 500 nM) were injected in PBT buffer (PBS with 0.05% Tween 20) at 25° C. with a flow rate of 30 μl/min. Association rates (kon) and dissociation rates (koff) were calculated using a simple one-to-one Langmuir binding model (BIAcore Evaluation Software version 3.2). The equilibrium dissociation constant (KD) was calculated as the ratio koff/kon.
# Anti-Flag antibody was used to capture Flag-Tagged NRR protein from all four Notch receptors in a black walled, high binding plate (Greiner). NRR antibody and E25 control antibodies were bound to the NRR proteins and washed away with PBS. An Alkaline Phosphate conjugated anti-human (H+L) secondary antibody (Jackson ImmunoResearch) was used to detect bound anti-NRR and E25. Unbound secondary was washed away and AP was detected with PNPP substrate (Pierce). […]
# [2] = system: Notch1-NRR / Notch2 NRR chimeric proteins; test: Epitope mapping: plate binding to Notch1-NRR/Notch2 NRR chimeric proteins fused to alkaline phosphatase; conditions: domain swap
# Description: The indicated NRR protein fragments (dark blue, Notch1 sequences; light blue, Notch2 sequences) were expressed as secreted proteins fused to alkaline phosphatase to enable rapid measurements of antibody binding in a plate-based assay. […] Antibody binding was assessed by measuring alkaline phosphatase activity that remained bound to the plate. […] (B) Structure of human Notch NRR1. NRR1 is shown as a C-alpha cartoon. The three calcium ions in the LNR motifs are shown as spheres. The position of the S2 cleavage site is marked with an arrow. (C) Superposition of NRR1 on NRR2 (chain A from pdb code 2OO4) based on structurally conserved atoms. NRR1 (shaded) and NRR2 (white) are shown as C-alpha traces. (D) Open-book view of the interface between NRR1 (left) and α-NRR1 Fab (right, border between heavy and light chains shown as a black dashed line). The extent to which the solvent accessible surface area is buried by complex formation is indicated.
# Synthetic Notch1 and Notch2 NRR sequences were designed with unique restriction sites at junctions between the five domains of the NRR-LNR-A; LNR-B; LNR-C; HD-N; and HD-C—and produced by Blue Heron Technology (Bothell, Wash.). Swapping various domains between the two synthetic sequences, using the engineered restriction sites, generated chimeric NRR proteins. The chimeric clones were assembled in a modified pUC19 vector and transferred to a SEAP containing vector, pCSC.AP, for expression. AP-tagged NRR proteins were produced by transfection of 293T cells. After 72 hr culture, the conditioned media was collected, cleared by centrifugation, and tested for AP activity using the Phospha-Light System (Applied Biosystems, Bedford, Mass.). The AP activity in each sample was normalized and an ELISA was performed to test the ability of α-NRR1 or α-NRR2 to bind the chimeric NRR proteins. The ELISA was performed as follows: either α-NRR1 or α-NRR2 was captured by a plate bound α-Fc antibody in 96-well format and incubated with the conditioned media overnight. The plate was washed to remove unbound protein, and the captured protein was tested for AP activity using the Phospha-Light System.
# [3] = system: intestinal cell differentiation; test: Histology and immunohistochemistry of mouse intestine tissue; format: in vivo; conditions: 5 mg/kg, one day after final dosing (FIGS. 15C and 24B)
# Text: (A) Total body weight change (mean+/−standard deviation) vs. time. […] Arrows mark the days of dosing. (B) Immunohistochemical analyses of small intestines. […] In each row as indicated, staining is shown for haemotoxylin and eosin (H & E), Alcian Blue for mucin and to mark secretory goblet cells, lysozyme to mark Paneth cells, Ki-67 for proliferation and Hes1 as a Notch downstream target. See FIGS. 19 and 20 for analyses of the large intestine at day 7 and of the small intestine at day 2, respectively. Bar=40 μm. (C) Comparison of Notch1- versus Notch2-specific inhibition on small intestinal cell differentiation. Small intestines from the study described in (A) were prepared for Alcian Blue and Ki-67 one day after the final dosing with α-gD, α-NRR1 or α-NRR2, as indicated. Bar=50 μm.
# Formalin-fixed and paraffin-embedded mouse small intestine tissues were sectioned at 3 micron thickness. Histochemical identification of intestinal cell types was performed with Alcian blue as recommended by the manufacturer (PolyScientific). For anti-Ki67 staining, sections were pretreated with Target Retrieval Solution (S1700, DAKO), and incubated with rabbit anti-Ki67 (1:200, clone SP6, Neomarkers). Secondary goat anti-rabbit at 7.5 μg/ml (Vector labs) was detected with the Vectastain ABC Elite Kit (Vector labs). Ki67 stained sections were counterstained with Mayer's haemotoxylin. For anti-lysozyme staining, sections were processed on the Discovery XT platform (Ventana Medical Systems, Inc.) using CC1m epitope recovery conditions, OmniMap-rabbit detection and Ventana haemotoxylin II/with bluing counterstain. For HES-1 staining, anti-rat HES-1 (clone NM1, MBL, International) was followed by TSA-HRP.
# The effect of inhibiting both Notch1 and Notch2 on intestinal cell fate determination was also investigated. […] The intestines were harvested and stained with H&E to reveal the crypt morphology. […] Further experimentation confirmed this observation.
# [4] = system: SK23 melanoma cells; test: Cell Titer Glo viability of melanoma cell line SK23; format: cell-based, human; conditions: six days, antibodies 20 mg/ml, DAPT 5 μM, ± Jagged-1
# Description: Human melanoma cell lines SK23 and LOX-IMVI were plated in medium containing 2% FBS at low density (4000 cells/well for SK23, 2500 cells/well for LOX-IMVI) in 96 well plates that were coated without (−jag-1) or with Jagged-1 ligand (+jag-1) (R&D Systems, Minneapolis, Minn.). […] An equal volume of DMSO served as the vehicle control, whereas an equal concentration of anti-gD HuB6 phage antibody served as the isotype control antibody. Cell Titer Glo assays (Promega, Madison, Wis.) were performed six days after plating. […] In FIGS. 25A and 25B, cell viability (y-axis) is expressed relative to the values from the DMSO vehicle, −jag-1 control wells.
molecule,measurement,setting,value
B1,binding to human or mouse sequences of the other three non-targeted receptors,[1],no binding
same,binding to chimera containing only the LNR-A and HD-C subdomains from NRR2,[2],weak but detectable binding
same,binding to chimera with LNR-A of NRR1 in the NRR2 backbone,[2],completely disrupted
same,binding to chimeras C.Hn and BC (only three subdomains from NRR2),[2],full binding
same,binding to chimeras with swaps of LNR-B or LNR-C in the NRR2 backbone,[2],no effect
same,"effects on small intestine (goblet cells, Alcian Blue)",[3],did not cause any detectable effects
same,cell viability,[4],decrease in viability
